Two molecules from patent US7880021B2, “Compounds and kits for the detection and the quantification of cell apoptosis” (Centre National de la Recherche Scientifique (CNRS), priority 2005, dated 2011) can be followed below.

One assay concerns CEM T cells. Nature of the assay: Determination of hypodiploid DNA with PI by flow cytometry. The settings on record: actinomycin D 0.5 μg/ml for 18 h; mean±SEM. It counts as cell-based, human. How it is done:
(§1) Human lymphoid CEM T cells were cultured in X-vivo 15 medium (Cambrex, France) at 37° C. in humidified 5% CO2 atmosphere. Cell viability was checked by trypan blue exclusion. Cells were seeded at 5×10^5 cells/ml in the presence or absence of actinomycin D (0.5 μg/ml) for 18 h. Cells were pelleted by centrifugation at 1500 rpm for 5 min and resuspended at 1×10^6 cells/ml in X-vivo 15 medium for experiments.
To verify the proportion of apoptotic cells, measurements of hypodiploid DNA with PI by flow cytometry have been performed. After apoptotic treatment, cells were harvested and numbered. Concentration in a 70% ethanol solution in H2O was adjusted to 5×10^5 cells/ml and fixation was allowed to proceed for at least 1 h at 4° C. Cells were washed once in Hank's balanced salt solution (HBSS) before resuspension in HBSS containing RNAse (0.5 mg/ml), PI (0.1 mg/ml) and incubation for 15 min at room temperature in the dark. Samples were analysed by flow cytometry using the CELLQuest software (Becton Dickinson, San Jose, Calif.). Under these conditions, the content of hypodiploid DNA in CEM T cells was 30±2% (mean±SEM).
On the technique in general: In flow cytometry, cells or beads pass a laser one at a time.

A further assay concerns T lymphoblastoid cells. As to the kind of experiment: Flow cytometry analysis with annexin V-FITC, PI and F2N12S. The format is cell-based, human.
Text: FIG. 6: Flow cytometry analysis of T lymphoblastoid cells treated by actinomycin D. Cells were stained by annexin V-FITC, PI and F2N12S. In (a), Annexin V-FITC and PI were selectively excited at 488 nm. Cells are sorted into living, dead and apoptotic cell populations. In (b), F2N12S is selectively excited at 407 nm. Living cells are discriminated from apoptotic and necrotic cells. In (c), the PI fluorescence intensities are plotted versus the T*/N* ratio of F2N12S. Living cells are in green, apoptotic cells are in cyan and dead cells are in orange. In (d), the populations sorted using the F2N12S/PI couple were colored according to their response with the annexin V/PI couple. The wavelengths of maximal transmission and bandwidths of used filters are indicated in brackets.
FIG. 7: Comparison of the intensiometric response of annexin V-FITC (a) with the ratiometric fluorescence response of F2N12S (b). Living, dead and apoptotic cells were identified as described in FIG. 6, by using either the annexin V-FITC/PI (a) or the F2N12S/PI (b) couple of dyes.
FIG. 8: Comparison of the response of annexin V-FITC and F2N12S on non-treated T lymphoblastoid cells stained by annexin V-FITC, PI and F2N12S. In (a), annexin V-FITC and PI were selectively excited at 488 nm. In (b), F2N12S is selectively excited at 407 nm. Cells are sorted into living and dead cell populations.
as §1
For the validation of F2N12S in cell cytometry, we used a FASCARIA™ (cell sorter) (BD Biosciences, CA, USA) equipped with an argon laser (488 nm) and a diode laser (407 nm) and emission filters DF30, DF42 and DF20 centered at 530 nm, 585 nm and 610 nm, respectively. The optical pathways corresponding to the argon laser and to the diode laser are independent. Data were analyzed using the FACSDIVA™ (cell sorter) Software (BD Biosciences). The granulation, size and fluorescence intensity were recorded at a rate of ˜1000 cells per second.
T lymphoblastoid cells were treated with actinomycin D and labeled simultaneously by FITC-labeled annexin V, propidium iodide (PI) and F2N12S. […] The emissions of FITC and PI were collected in the spectral regions of 515-545 nm and 600-620 nm, respectively. […] The emission light in this case was collected in two spectral regions: at 515-545 nm to monitor the emission of the N* band and 564-606 nm to collect the emission of the T* band (FIG. 6b). […] The second one is characterized by a high N*/T* intensity ratio (shown in red) and can be assigned to apoptotic and dead cells.
The probe of the invention F2N12S has been combined with PI and the fluorescence intensities of PI have been represented as a function of the T*/N* ratio of F2N12S (FIG. 6c). In this case, the populations of apoptotic and dead cells are clearly discriminated by using the differences in the PI intensities. […] This conclusion was further strengthened when the populations discriminated by the F2N12S/PI couple were colored according to their response with the annexin V-FITC/PI couple (FIG. 6d).

For a further assay, the system named is T lymphocytes. As to the kind of experiment: Laser scanning confocal ratiometric imaging of T lymphocytes. It counts as cell-based. The method, then:
FIG. 9: Laser scanning confocal imaging of T lymphocytes stained with annexin V-FITC (a) and F2N12S (b and c). Combination of transmission and fluorescence images of cells treated with actinomycin D for 18 hours (please complete this sentence). […] Due to their low binding to annexin V, normal cells are not visualized in the fluorescence images. (b and c) Ratiometric images of normal (b) and actinomycin D-treated (c) cells stained with 0.2 μM F2N12S. […] The size of the images is 60×73.1 μm.
FIG. 10: Time-series of confocal fluorescence ratiometric images of actinomycin D-treated T lymphocytes stained with F2N12S. The cells were treated with actinomycin D for 18 hours and then, incubated with the probe (0.2 μM) for 5 min. Images were recorded at 1 min (a), 10 min (b) and 20 min (c) post incubation. […] The size of the images is 60×73.1 μm.
For collecting cell images, a Laser Scanning Confocal Imaging System MRC-1024 (Bio-Rad) was used. Cells in chambered cover glass were prepared by following the preparation procedure described above. The 442 nm line of a HeCd laser was used as the excitation light source. Emission was collected by using two filters: 485/30 for the N* band and 585LP for the T* band. Collected images were analyzed by the Amira 3.0 software.
To further compare F2N12S and annexinV-derived probes, two-color ratiometric images of F2N12S-labeled cells undergoing apoptosis were recorded by laser scanning confocal microscopy and compared with intensity based images obtained using annexin V-FITC. […] Moreover, the fluorescence intensity of apoptotic cells varies considerably from cell to cell. These differences are difficult to interpret since the intensity depends on the probe concentration as well as on the size and confluence of the cells. […] According to our spectroscopy and flow cytometry data, the latter cells are apoptotic. […] Thus, unlike annexin V-FITC, these probes provide an absolute parameter, the intensity ratio, which can be calibrated, and can characterize the level of apoptosis independently of the probe/cell concentration and the excitation light intensity. In addition, the inventors have observed that in normal cells and cells on the initial steps of apoptosis, the T*/N* intensity ratio is not evenly distributed within the plasma membrane of a given cell. This may indicate an inhomogeneous lipid composition of their plasma membranes that is likely related to the presence of lipid domains.
The inventors also follow apoptotic transformation of the plasma membrane as a function of time. Normal and actinomycin D-treated cells were stained with the corresponding probe and the fluorescence images were subsequently recorded during 20 min. […]

[1] abbreviates: actinomycin D-treated cells, probe combined with PI.

Numbered stars: 1 amine (or outer) side, 2 acyl side, 3 side chain; on linkers, the order of the positions; unused ones are H or OH. Bridge positions count the residues as written; N and C are the ends. Square brackets hold non-standard residues; d marks the D form. Peptide text beside a SMILES is read from it. I, II: the chains in the order shown. Actinocin(9to1) = Cc1c2oc3c(C)ccc(C(=O)[*:1])c3nc-2c(C(=O)[*:2])c(N)c1=O; NMeV = CN[C@H](C(=O)O)C(C)C; Sar = CNCC(=O)O

For the molecule `Cc1c2oc3c(C)ccc(C(=O)N[C@@H]4C(=O)N[C@H](C(C)C)C(=O)N5CCC[C@H]5C(=O)N(C)CC(=O)N(C)[C@@H](C(C)C)C(=O)O[C@@H]4C)c3nc-2c(C(=O)N[C@@H]2C(=O)N[C@H](C(C)C)C(=O)N3CCC[C@H]3C(=O)N(C)CC(=O)N(C)[C@@H](C(C)C)C(=O)O[C@@H]2C)c(N)c1=O` [actinomycin D, Actinomycin D] (I: T[dV]P[Sar][NMeV] / II: T[dV]P[Sar][NMeV]; ester I:1-I:C, II:1-II:C; linker I:N-II:N via Actinocin(9to1)), the “content of hypodiploid DNA” value in the assay on CEM T cells was 30±2%.

B1: annexin V-FITC: Annexin V labelled with fluorescein isothiocyanate, kit from Immunotech; reference apoptosis marker (protein, UniProt P08758 2-320, looked up)
Annexin A5: AQVLRGTVTDFPGFDERADAETLRKAMKGLGTDEESILTLLTSRSNAQRQEISAAFKTLFGRDLLDDLKSELTGKFEKLIVALMKPSRLYDAYELKHALKGAGTNEKVLTEIIASRTPEELRAIKQVYEEEYGSSLEDDVVGDTSGYYQRMLVVLLQANRDPDAGIDEAQVEQDAQALFQAGELKWGTDEEKFITIFGTRSVSHLRKVFDKYMTISGFQIEETIDRETSGNLEQLLLAVVKSIRSIPAYLAETLYYAMKGAGTDDHTLIRVMVSRSEIDLFNIRKEFRKNFATSLYSMIKGDTSGDYKKALLLLCGEDD
modifications: FITC label
On to B1, for which, in the assay on T lymphoblastoid cells (setting [1]), the “percentage of apoptotic cells” value was determined as 18%, the “percentage of dead cells” value worked out at 49% and the “percentage of living cells” value came to 33%. Moreover, the “percentage of dead cells” value in the assay on T lymphoblastoid cells (non-treated T lymphoblastoid cells) is listed as 5%. In addition, the “time-dependent change of the fluorescence images” value in the assay on T lymphocytes (actinomycin D-treated cells, images recorded during 20 min) is “not possible to detect any time-dependent changes”. The “which cells are stained in fluorescence images” value in the assay on T lymphocytes (normal and actinomycin D-treated cells) was “labels only apoptotic and necrotic cells”.
